Source: the supplement of paper PMC11908140

B1: library; numbered along this chain (parent)
chain: MRKPRAAVGSGHRKQAASQEGRQKHAKNNSQAKPSACDGLARQPEEVVLQASVSSYHLFRDVAEVTAFRGSLLSWYDQEKRDLPWRRRAEDEMDLDRRAYAVWVSEVMLQQTQVATVINYYTGWMQKWPTLQDLASASLEEVNQLWAGLGYYSRGRRLQEGARKVVEELGGHMPRTAETLQQLLPGVGRYTAGAIASIAFGQATGVVDGNVARVLCRVRAIGADPSSTLVSQQLWGLAQQLVDPARPGDFNQAAMELGATVCTPQRPLCSQCPVESLCRARQRVEQEQLLASGSLSGSPDVEECAPNTGQCHLCLPPSEPWDQTLGVVNFPRKASRKPPREESSATCVLEQPGALGAQILLVQRPNSGLLAGLWEFPSVTWEPSEQLQRKALLQELQRWAGPLPATHLRHLGEVVHTFSHIKLTYQVYGLALEGQTPVTTVPPGARWLTQEEFHTAAVSTAMKKVFRVYQGQQPGTCMGSKRSQVSSPCSRKKPRMGQQVLDNFFRSHISTDAHSLNSAAQ

Variants of: B1
Test: 8OG:A repair function score (normalized; synonymous = 0, nonsense = -1) (normalized log-likelihood score); higher = more repair activity (WT-like)
Details: with 8OG:A DNA repair reporter (GFP) in HEK-293 MUTYH KO cells
Outline: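 Lentiviral MUTYH cDNA NNN codon-scan libraries in HEK-293 MUTYH knockout cells (10 pg/ml doxycycline) were co-transfected with an 8OG:A GFP repair reporter plus mCherry. At 72 h, viable mCherry+ cells were sorted into GFP+ (repair) and GFP− bins, three replicates per tile, then tile amplicons were sequenced. Per-tile Rosace fitness scores became a normalized repair function score anchored on synonymous and nonsense distributions. Synonymous medians were set to 0 and nonsense to -1; variants under 300 counts per million at the start were removed.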

8OG:A repair function score: each site, then its substitutions
L392: R -1.02; P -1.09; C -0.389; G -0.896; H -0.963; T -0.777; Y -0.624; M -0.171; I 0.0377; S -1.04; W -1.27; K -1.03; D -0.872; Q -0.839; N -1.52; A -0.807; E -1.11; V -0.289; F -0.647
A400: F 0.262; C -0.215; W -0.139; K -0.458; G -0.0159; D -0.752; Y -0.116; P -0.723; L -0.241; V -0.246; R -0.432; H 0.179; S -0.189; T -0.0197; N -0.913; M 0.54; E -0.727; I -0.319; Q -0.0826
Q386: P -0.219; C 0.0105; M 0.34; G 0.0232; L 0.304; A 0.0488; H 0.241; N 0.0466; F -0.144; K -0.213; T -0.191; D -0.076; S -0.0961; V -0.383; R 0.0701; E -0.0345; I 0.129; Y 0.41; W 0.351
Q388: Y -0.235; L 0.511; R 0.206; W -0.0946; D 0.0946; F -0.281; K -0.55; E -0.368; S -0.201; C -0.459; P 0.145; H -0.356; V 0.063; A 0.235; M -0.052; G -0.34; I 0.175; T -0.108; N 0.244
W399: C 0.313; G -0.541; A -0.229; F -0.284; R -0.289; V -0.167; I -0.15; K -0.616; L 0.1; E -0.679; Y 0.509; T -0.296; H -0.291; M -0.301; S -0.232; D -0.666; N -0.463; Q -0.108; P -0.724
S384: I 0.0514; G 0.138; H -0.0587; N -0.0929; F 0.0338; M -0.315; Q -0.345; V -0.0122; D 0.201; E 0.0681; P -0.218; Y -0.227; K -0.0507; T -0.0483; R -0.115; L -0.000173
K390: M -0.0263; I -0.265; D 0.0762; F -0.0738; E -0.0669; V -0.164; T -0.141; N 0.177; A -0.201; Y -0.199; R -0.126; C 0.0921; Q 0.474; H 0.403; S 0.0865; L -0.0847; G -0.0253; P -0.262; W -0.444
G401: P 0.0452; L -0.214; Q -0.521; R -0.272; S -0.0552; N 0.111; C -0.381; H -0.241; I -0.184; E 0.191; M -0.302; D 0.0297; T -0.428; K -0.582; F -0.16; A -0.317
Q394: F -0.00248; K -0.158; G 0.266; D 0.0938; M -0.148; N 0.483; I -0.343; E 0.261; W -0.387; H 0.21; T -0.314; S -0.0073; C -0.273; L -0.0272; R -0.0703; A 0.04; V -0.209; Y -0.129; P -0.467
L393: S -0.405; E -0.395; I 0.0907; M 0.297; T -0.383; A -0.295; C -0.00132; R 0.00361; H 0.25; D -0.369; K -0.0987; F -0.244; Q 0.0615; P -0.792; V -0.37; Y -0.503; G -0.22; W -0.266; N -1.03
E395: R -0.122; A -0.162; S 0.0493; V -0.0171; T -0.194; N -0.302; H -0.214; G -0.277; D -0.291; W -0.193; K -0.345; Q -0.276; L -0.23; C -0.217; I -0.133; F -0.476; M -0.253; P -0.546; Y -0.0134
L396: D -1.33; H -0.886; G -0.426; Q -0.673; E -1.07; P -0.766; F -0.431; K -1.03; T -0.534; Y -1.21; I -0.113; R -0.992; C -0.199; S -0.52; W -0.581; M -0.451; N -0.969; A -0.329; V -0.026
R389: D -0.426; P -0.583; N -0.415; S -0.117; I 0.462; F -0.357; H -0.403; V 0.273; Q -0.613; K -0.274; C -0.13; W -0.531; Y -0.0127; M -0.236; T 0.1; E -0.116; G -0.385; A -0.241; L -0.04
L387: K 0.00861; V -0.0288; F -0.293; W -0.0182; G -0.154; C -0.171; H -0.744; E -0.0756; I 0.125; Q 0.0651; S 0.154; P -0.26; T 0.0729; R -0.0979; Y -0.136; D 0.259; N -0.167; M 0.0425; A -0.21
A391: Q -0.0188; Y -0.00342; P -0.305; T -0.42; L -0.101; K -0.22; R -0.136; G -0.201; D -0.378; E -0.106; W -0.428; C -0.0464; S -0.175; I 0.114; V 0.0327; F 0.112; M -0.279; N -0.196
Q397: D -0.0883; C -0.496; S -0.159; L -0.101; Y -0.0393; T -0.463; F 0.0272; G -0.363; R -0.206; A -0.314; P -0.645; I -0.624; W 0.284; V 0.0994; M -0.301; H -0.717; K -0.304; E -0.364
R398: E -0.407; N -0.285; Y 0.174; W -0.973; V -0.2; G -0.102; H 0.0204; I -0.416; T -0.326; S -0.426; C -0.0446; P -0.556; F 0.214; A 0.0255; D -0.249; M 0.0969; L -0.263; Q -0.525; K -0.0169
E385: H -0.135; L 0.0198; I 0.197; S -0.167; D 0.0907; W 0.109; Y -0.00387; R -0.0734; K -0.468; P -0.17; T -0.24; N -0.0672; V -0.0807; Q 0.29; A 0.0147; G -0.126; C 0.258; F -0.34; M 0.0941
